The labels stand for the following.
T1: cynomolgus monkey FcγRIIa1 extracellular domain, His-tagged (cynomolgus monkey)
T1 construct: also called cyno FcγRIIa1; cynoFcgRIIa1; not shown: C-terminal His-tag
T1 chain: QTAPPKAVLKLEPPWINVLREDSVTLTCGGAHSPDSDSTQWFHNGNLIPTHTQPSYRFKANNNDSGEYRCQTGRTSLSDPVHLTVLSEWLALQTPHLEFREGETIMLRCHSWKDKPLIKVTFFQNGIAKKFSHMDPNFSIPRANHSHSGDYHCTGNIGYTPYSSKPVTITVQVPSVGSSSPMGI

T2: human FcγRIIb extracellular domain, His-tagged (human, UniProt P31994 43-217)
T2 construct: also called FcgRIIb (human); not shown: C-terminal His-tag
T2 sequence: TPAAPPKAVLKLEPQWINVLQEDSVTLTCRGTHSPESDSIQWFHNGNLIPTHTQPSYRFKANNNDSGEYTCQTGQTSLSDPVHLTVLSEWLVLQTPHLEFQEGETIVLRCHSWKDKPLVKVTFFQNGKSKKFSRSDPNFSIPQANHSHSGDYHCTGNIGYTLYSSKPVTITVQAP

T3: cynomolgus monkey FcγRIIa3 extracellular domain, His-tagged (cynomolgus monkey)
T3 construct: also called cyno FcγRIIa3; cynoFcgRIIa3; not shown: C-terminal His-tag
T3 chain: T1 chain with P95T, T121A, A128S, H133P, D135N

T4: human FcγRIIaR extracellular domain, His-tagged (human, UniProt P12318 34-217)
T4 construct: also called human FcγRIIa (type R); FcgRIIaR; not shown: C-terminal His-tag
T4 chain: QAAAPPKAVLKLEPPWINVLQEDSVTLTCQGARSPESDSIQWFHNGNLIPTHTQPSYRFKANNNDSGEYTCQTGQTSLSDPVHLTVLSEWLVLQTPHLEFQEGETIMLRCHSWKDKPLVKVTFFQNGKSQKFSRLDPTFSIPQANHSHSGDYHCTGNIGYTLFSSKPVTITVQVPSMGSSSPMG

T5: human FcγRIIaH extracellular domain, His-tagged (human, UniProt P12318 34-217)
T5 construct: also called human FcγRIIa (type H); FcgRIIaH; not shown: C-terminal His-tag
T5 sequence: T4 chain with R134H

T6: cynomolgus monkey FcγRIIa2 extracellular domain, His-tagged (cynomolgus monkey)
T6 construct: also called cyno FcγRIIa2; cynoFcgRIIa2; not shown: C-terminal His-tag
T6 chain: T1 chain with P95T, T121A, I127K, A128S, K130N, D135N, R142Q

T7: cynomolgus monkey FcγRIIb extracellular domain, His-tagged (cynomolgus monkey)
T7 construct: also called cyno FcγRIIb; cynoFcγRIIb; not shown: C-terminal His-tag
T7 chain: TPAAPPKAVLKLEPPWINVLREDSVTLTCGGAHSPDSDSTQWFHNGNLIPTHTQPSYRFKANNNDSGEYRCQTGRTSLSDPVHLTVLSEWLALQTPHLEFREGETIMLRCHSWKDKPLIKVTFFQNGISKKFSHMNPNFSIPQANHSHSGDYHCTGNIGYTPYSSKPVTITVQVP

T8: cynomolgus monkey FcγRIIIaS extracellular domain, His-tagged (cynomolgus monkey, UniProt Q8SPW2 21-206 at identity 1.00))
T8 construct: also called cyno FcγRIIIaS; cynoFcγRIIIaS; not shown: C-terminal His-tag
T8 chain: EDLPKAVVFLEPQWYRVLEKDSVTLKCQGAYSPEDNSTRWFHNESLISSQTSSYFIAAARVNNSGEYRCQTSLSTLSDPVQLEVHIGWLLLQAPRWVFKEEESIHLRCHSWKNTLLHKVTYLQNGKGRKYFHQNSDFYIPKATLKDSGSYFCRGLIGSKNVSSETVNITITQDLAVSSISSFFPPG

B1: M103205H795-MY449/M103202L889-SK1 (antibody, human IgG1, kappa)
heavy: QVTLKESGPVLVKPTETLTLTCTVSGIDLSHDDISWVRQAPGKGLEWVGIISYAGSTYYASWAKGRLTISKDTSKNQVVLTMTNMDPVDTATYYCARGVPAYSHGGDLWGQGTLVTVSSASTKGPSVFPLAPSSKSTSGGTAALGCLVKDYFPEPVTVSWNSGALTSGVHTFPAVLQSSGLYSLSSVVTVPSSSLGTQTYICNVNHKPSNTKVDKKVEPKSCDKTHTCPPCPALELLTGPSVFLFPPKPKDTLMISRTPEVTCVVVDVSDEDPEVKFNWYVDGVEVHNAKTKPREEQYNSTYRVVSVLTVLHQDWLNGKEYKCKVSNKALPKPIEKTISKAKGQPREPQVYTLPPSREEMTKNQVSLTCLVKGFYPSDIAVEWESNGQPENNYKTTPPVLDSDGSFFLYSKLTVDKSRWQQGNVFSCSVMHEALHNHYTQKSLSLSP
light: DIVMTQSPATLSLSPGERATLSCTSSQSVYHANWLSWFQQKPGQPPKLLIYWASTLAYGVPSRFSGSGSGTDFTLTISSLQPEDAATYYCAGGYGGGRYAFGQGTKVEIKRTVAAPSVFIFPPSDEQLKSGTASVVCLLNNFYPREAKVQWKVDNALQSGNSQESVTEQDSKDSTYSLSSTLTLSKADYEKHKVYACEVTHQGLSSPVTKSFNRGEC
notes: copies: 2 + 2
B2: M103205H795-MY450/M103202L889-SK1 (antibody, human IgG1, kappa)
heavy: B1 heavy with L234M
light: B1 light
notes: copies: 2 + 2
B3: M103205H795-MY456/M103202L889-SK1 (antibody, human IgG1, kappa)
heavy: B1 heavy with L234V
light: B1 light
notes: copies: 2 + 2
B4: M103205H795-MY451/M103202L889-SK1 (antibody, human IgG1, kappa)
heavy: B1 heavy with L234N
light: B1 light
notes: copies: 2 + 2
B5: M103205H795-MY455/M103202L889-SK1 (antibody, human IgG1, kappa)
heavy: B1 heavy with L234T
light: B1 light
notes: copies: 2 + 2
B6: M103205H795-MY453/M103202L889-SK1 (antibody, human IgG1, kappa)
heavy: B1 heavy with L234R
light: B1 light
notes: copies: 2 + 2
B7: M103205H795-MY457/M103202L889-SK1 (antibody, human IgG1, kappa)
heavy: B1 heavy with L234W
light: B1 light
notes: copies: 2 + 2
B8: M103205H795-MY452/M103202L889-SK1 (antibody, human IgG1, kappa)
heavy: B1 heavy with L234Q
light: B1 light
notes: copies: 2 + 2
B9: M103205H795-MY454/M103202L889-SK1 (antibody, human IgG1, kappa)
heavy: B1 heavy with L234S
light: B1 light
notes: copies: 2 + 2

Substitutions are numbered along the chain they refer to.

For the first experiment, the target named is T1, cynomolgus monkey FcγRIIa1 …. Nature of the experiment: SPR (BIACORE), captured antibody, FcgR as analyte. As to the method: (§1) The kinetic analysis of interactions between these antibodies and FcγR was carried out using BIACORE® T200 or BIACORE® 4000 (GE Healthcare). HBS-EP+ (GE Healthcare) was used as the running buffer, and the measurement temperature was set to 25° C. A chip produced by immobilizing Protein A. Protein A/G or mouse anti-human IgG kappa light chain (BD Biosciences) onto a Series S Sensor Chip CM4 or CM5 (GE Healthcare) by the amine-coupling method was used. […] After the measurement, the antibody captured on the chip was washed off by allowing reaction with 10 mM glycine-HCl, pH1.5 and 25 mM NaOH so that the chip was regenerated and used repeatedly. The sensorgrams obtained as measurement results were analyzed by the 1:1 Langmuir binding model using the BIACORE® Evaluation Software to calculate the binding rate constant ka (L/mol/s) and dissociation rate constant kd (l/s), and the dissociation constant KD (mol/L) was calculated from these values. […] Regarding such interactions, KD values were calculated using the following 1:1 binding model described in BIACORE® T100 Software Handbook BR1006-48 Edition AE.
On the technique in general: In SPR one partner is held on a chip, and binding of the other changes the refractive index at the surface.
With B1, the affinity, expressed as Kd, was 870 nM.
For the molecule B2, the Kd (as a rule, a measure of binding affinity in units of concentration) worked out at 1300 nM.
On the same count and under the same terms, then B3, with 1900 nM; and B4, with 3600 nM.
The same measure, in the same setting: for B5 the value was 3100 nM; for B6, 8200 nM.
B7: the Kd was found to be 830 nM.
Same read-out and setting: for B8 the value was 3400 nM.
Same read-out and setting: for B9 the value was 3800 nM.

The target of the next experiment is T2, human FcγRIIb extracellular domain, …. Nature of the experiment: SPR (BIACORE), captured antibody, FcgR as analyte. As to the method: as §1
For the molecule B1, the Kd was found to be 290 nM.
Still for that read-out and setting: then B2, with 470 nM.
Consider B3, for which binding was put at a Kd of 1100 nM.
For B4, binding was put at a Kd of 3000 nM.
The same measure, in the same setting: then B5, with 2200 nM; and B6, with 6500 nM.
As for B7, the Kd came to 330 nM.
Same read-out and setting: for B8 the value was 2900 nM; for B9, 3100 nM.

A further experiment has as its target T3, cynomolgus monkey FcγRIIa3 …. Kind of experiment: SPR (BIACORE), captured antibody, FcgR as analyte. As to the method:
as §1
In turn, B1 had a Kd of 1500 nM.
Same read-out and setting: for B2 the value was 2200 nM.
The same measure, in the same setting: then B3, with 3400 nM; and B4, with 6700 nM; and B5, with 5400 nM.
Turning to B6, the Kd turned out to be 21000 nM.
For B7, the Kd was found to be 1200 nM.
Consider B8, for which the Kd worked out at 6500 nM.
The same measure, in the same setting: for B9 the value was 7600 nM.

In another experiment the target is T4, human FcγRIIaR extracellular domain, …. Nature of the experiment: SPR (BIACORE), captured antibody, FcgR as analyte. The procedure: as §1
B1 showed a Kd of 74 nM.
The same measure, in the same setting: for B2 the value was 120 nM; for B3, 290 nM.
The same measure, in the same setting: for B4 the value was 840 nM.
B5 returned a Kd of 460 nM.
In the case of B6, the Kd was 1600 nM.
The same measure, in the same setting: then B7, with 73 nM; and B8, with 620 nM; and B9, with 760 nM.

Another experiment has as its target T5, human FcγRIIaH extracellular domain, …. Nature of the experiment: SPR (BIACORE), captured antibody, FcgR as analyte. The procedure: as §1
Regarding B1, the Kd came to 93 nM.
With B2, the Kd stood at 130 nM.
On the same count and under the same terms, then B3, with 170 nM; and B4, with 410 nM.
As to B5, binding was characterised by a dissociation constant (Kd) of 310 nM.
As for B6, the Kd stood at 750 nM.
In turn, B7 displayed a Kd of 120 nM.
For B8, the Kd came out at 360 nM.
Still for that read-out and setting: for B9 the value was 410 nM.

A further experiment deals with T6, cynomolgus monkey FcγRIIa2 …. Nature of the experiment: SPR (BIACORE), captured antibody, FcgR as analyte. The procedure: as §1
Molecule B1 came in with a Kd of 940 nM.
Take B2: binding was put at a Kd of 1100 nM.
The same measure, in the same setting: for B3 the value was 1700 nM.
Still for that read-out and setting: then B4, with 4200 nM.
B5 registered a Kd of 1900 nM.
As for B6, the Kd came out at 9900 nM.
On the same count and under the same terms, then B7, with 840 nM.
Still for that read-out and setting: for B8 the value was 3100 nM; for B9, 3100 nM.

The target in the next experiment is T7, cynomolgus monkey FcγRIIb extracellular …. Nature of the experiment: SPR (BIACORE), captured antibody, FcgR as analyte. The procedure:
as §1
The molecule B1 showed a Kd of 230 nM.
The molecule B2 came in with a Kd of 280 nM.
Take B3: binding was characterised by a dissociation constant (Kd) of 520 nM.
The same measure, in the same setting: then B4, with 1000 nM; and B5, with 920 nM; and B6, with 2100 nM.
On the same count and under the same terms, then B7, with 200 nM; and B8, with 920 nM.
Still for that read-out and setting: then B9, with 1000 nM.

For another experiment, the target named is T8, cynomolgus monkey FcγRIIIaS …. Kind of experiment: SPR (BIACORE), captured antibody, FcgR as analyte. The procedure:
as §1
As for B1, the Kd was determined as 1000 nM.
B2 gave a Kd of 1800 nM.
Still for that read-out and setting: then B3, with 2000 nM.
Turning to B4, binding was put at a Kd of 2700 nM.
Same read-out and setting: then B5, with 2800 nM.
With B6, the Kd came to 6500 nM.
Same read-out and setting: then B7, with 1100 nM; and B8, with 2800 nM; and B9, with 2500 nM.

In the next experiment the target is T9, human FcγRIIIaV extracellular domain, His-tagged (human, UniProt P08637 17-208).
T9 construct: also called FcgRIIIaV; not shown: C-terminal His-tag
T9 sequence (P08637 17-208 F176V): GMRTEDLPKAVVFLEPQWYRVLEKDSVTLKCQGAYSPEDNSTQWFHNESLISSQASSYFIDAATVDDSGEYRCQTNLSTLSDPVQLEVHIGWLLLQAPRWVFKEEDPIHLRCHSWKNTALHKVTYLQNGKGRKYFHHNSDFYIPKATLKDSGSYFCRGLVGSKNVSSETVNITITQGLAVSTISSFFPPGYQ
Kind of experiment: SPR (BIACORE), captured antibody, FcgR as analyte. As to the method: as §1
On to B1, for which the Kd turned out to be 3700 nM.
The same measure, in the same setting: then B2, with 4000 nM; and B3, with 5300 nM; and B4, with 7100 nM.
As for B5, binding was put at a Kd of 6800 nM.
Same read-out and setting: for B6 the value was 14000 nM; for B7, 3500 nM; for B8, 6100 nM.
The same measure, in the same setting: then B9, with 5900 nM.

Values taken from US20200317768A1 (published 2020).
